Consider 9 molecules from patent US20240034757A1 (OXFORD UNIVERSITY INNOVATION, published 2024).

Sequences and labels used below:
B1: CXCL9_HUMAN (ligand)
chain: TPVVRKGRCSCISTNQGTIHLQSLKDLKQFAPSPSCEKIEIIATLKNGVQTCLNPDSADVKELIKKWEKQVSQKKKQKNGKKHQKKKVLKVRKSQRSRQKKTT

For one assay, the target named is T1, P1134_IXORI (Ixodes ricinus, UniProt A0A0K8RAI0 32-135).
T1 sequence: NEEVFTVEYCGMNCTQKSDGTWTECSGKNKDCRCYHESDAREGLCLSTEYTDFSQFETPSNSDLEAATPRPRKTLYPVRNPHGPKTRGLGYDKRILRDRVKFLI
Briefly: BLI.

The assay “CXCL9_HUMAN” concerns the target B1. The assay can be described thus: BLI. In general terms: BLI is a label-free optical method that tracks binding on a fibre tip over time.
For the next assay, the target named is CXCL12_HUMAN (human, UniProt P48061 22-89). The assay can be described thus: BLI.
For a further assay, the target named is T2, CXCL13_HUMAN (human, UniProt O43927 23-109).
T2 sequence: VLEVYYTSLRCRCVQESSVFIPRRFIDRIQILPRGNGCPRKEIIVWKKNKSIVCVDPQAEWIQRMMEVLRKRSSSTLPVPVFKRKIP
Briefly: BLI.

In assay [1] the target is T3, CXCL8_HUMAN (human, UniProt P10145 28-99).
T3 sequence: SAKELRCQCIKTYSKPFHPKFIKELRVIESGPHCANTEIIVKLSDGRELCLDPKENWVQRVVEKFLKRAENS
Briefly: yeast surface display FACS re-test.

For a further assay, the target named is T4, CXCL10_HUMAN (human, UniProt P02778 22-98).
T4 sequence: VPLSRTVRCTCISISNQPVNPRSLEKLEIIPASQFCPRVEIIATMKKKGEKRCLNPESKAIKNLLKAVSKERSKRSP
The assay can be described thus: BLI.

The target of another assay is T5, CXCL14_HUMAN (human, UniProt O95715 35-111).
T5 sequence: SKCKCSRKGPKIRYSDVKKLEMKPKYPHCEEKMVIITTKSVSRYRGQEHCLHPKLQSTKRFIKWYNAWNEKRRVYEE
The assay can be described thus: BLI.

The next assay concerns the target T6, CXCL5_HUMAN (human, UniProt P42830 41-114).
T6 sequence: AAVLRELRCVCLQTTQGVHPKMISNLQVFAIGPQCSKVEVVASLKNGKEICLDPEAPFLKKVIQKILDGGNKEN
The assay can be described thus: BLI [Cont.].

The next assay addresses T7, CXCL6_HUMAN (human, UniProt P80162 38-114).
T7 sequence: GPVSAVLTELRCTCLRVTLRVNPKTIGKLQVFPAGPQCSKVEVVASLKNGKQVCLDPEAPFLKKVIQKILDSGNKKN
Briefly: BLI [Cont.].

The next assay deals with T8, CCL5_HUMAN (human, UniProt P13501 24-91).
T8 sequence: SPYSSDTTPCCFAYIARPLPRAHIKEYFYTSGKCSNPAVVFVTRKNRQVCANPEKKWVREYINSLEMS
Briefly: yeast surface display FACS.

The target of the next assay is T9, CXCL1_HUMAN (human, UniProt P09341 35-107).
T9 sequence: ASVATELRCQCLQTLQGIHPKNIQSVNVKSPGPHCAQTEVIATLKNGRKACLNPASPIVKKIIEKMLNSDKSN
Briefly: yeast surface display FACS re-test.

For assay [2], the target named is T10, CXCL11_HUMAN (human, UniProt O14625 22-94).
T10 sequence: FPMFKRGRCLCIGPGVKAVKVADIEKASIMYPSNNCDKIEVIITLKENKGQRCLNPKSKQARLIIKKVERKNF
Briefly: BLI.

For the next assay, the target named is T11, CXCL7_HUMAN (human, UniProt P02775 59-128).
T11 sequence: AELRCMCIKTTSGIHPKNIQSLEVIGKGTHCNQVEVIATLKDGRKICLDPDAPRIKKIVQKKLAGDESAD
The assay can be described thus: BLI [Cont.].

In assay [3] the target is T3, CXCL8_HUMAN. The assay can be described thus: BLI [Cont.].
The target in the next assay is T12, CXCL4_HUMAN (human, UniProt P02776 32-101).
T12 sequence: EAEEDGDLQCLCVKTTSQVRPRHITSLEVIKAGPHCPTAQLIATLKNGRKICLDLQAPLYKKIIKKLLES
Briefly: BLI [Cont.].

For assay [4], the target named is T10, CXCL11_HUMAN. Briefly: yeast surface display FACS re-test.
In a further assay the target is BK1.1FITC. The assay can be described thus: fluorescence polarisation, 50 nM peptide.

CXCL12_HUMAN, sequence (P48061 22-89 limits assumed): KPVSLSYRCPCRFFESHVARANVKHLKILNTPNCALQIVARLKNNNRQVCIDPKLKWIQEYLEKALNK

For the molecule B1, the binding result with P1134_IXORI is on record as “no binding (tested: 300 nM)”.

B2: P1127_IXORI (other)
chain: AGKDDEHFSVDYCGMNCTQQEDGSWTACSGRNGECRCYHESGKRSGLCLSTTYIDFSEYGNLSDSDIAAASPRLSMKESH
On to B2, for which the binding result with CXCL9_HUMAN, with CXCL12_HUMAN and with CXCL13_HUMAN was “no binding (tested: 300 nM)” each time. For the same molecule, the “% cells over threshold fluorescence” value in the assay with CXCL8_HUMAN [1] is 43%.

B3: P1170_IXORI (other)
chain: LGDEDQLFSVEYCGTNCTQQDDGKWTPCSGKNGKCKCYHEDGKRYGLCLYTEYTDFSQYPNPEGSEIENTRPRP
As for B3, the binding result with CXCL9_HUMAN, with CXCL10_HUMAN, in the assay with CXCL12_HUMAN, in the assay with CXCL13_HUMAN, in the assay with CXCL14_HUMAN and with CXCL5_HUMAN was “no binding (tested: 300 nM)” in each case. Besides, the binding result in the assay with CXCL6_HUMAN was “no binding (tested: 300 nM)”. Further, in the assay with CXCL8_HUMAN [1], the “% cells over threshold fluorescence” value came to 81%.

B4: P1174_IXORI (other)
chain: LNNENELFSVEYCGANCTQQDNGSWTKCKGNCTCYHEDGKRYGLCLSTEYTDFTQFPKPTSEEIADASPRPKETNSH
For B4, the binding result with CXCL9_HUMAN, with CXCL10_HUMAN, in the assay with CXCL12_HUMAN, in the assay with CXCL13_HUMAN, with CXCL14_HUMAN and with CXCL6_HUMAN was “no binding (tested: 300 nM)” in each case. The “% cells over threshold fluorescence” value with CXCL8_HUMAN [1] was 29%.

B5: P1063_AMBTR (other)
chain: QSEVGKNVPGCGDTETLEAPPQEKPPYYEYKDEEGCTQKVLESWFQAGERSTGRGQKKRGHGRRPSRVLRTVDCRKNCTVGITALPDGHLCLVPRGDPFTRGGAIKYGCYLGDCASGHCQHRYETVSCRLPAPDTTAKPYYVTPEK
Consider B5, for which the binding result in the assay with CCL5_HUMAN is on record as “binds”.

B6: P1168_IXORI (other)
chain: GQDTDGKEKSDEYELFTVEYCGTNCTQLENGSWTACTGKNGTCRCFHENDKKVGLCLSTEYTDFSEYPDPNSEEIKAASPLP
For B6, the binding result with CXCL9_HUMAN, in the assay with CXCL12_HUMAN and with CXCL13_HUMAN was “no binding (tested: 300 nM)” in each case. Further, the “% cells over threshold fluorescence” value in the assay with CXCL1_HUMAN amounted to 66%; in the assay with CXCL8_HUMAN [1], 24%.

B7: P1128_IXORI (other)
chain: KDDEHFSVDYCGMNCTQQEDGSWTACSGRNEECRCYHESGKKNGLCLSTTYIDFSQYGNPSDSDIAAASPRP
With B7, the binding result with CXCL9_HUMAN, with CXCL10_HUMAN, in the assay with CXCL11_HUMAN [2], with CXCL12_HUMAN, with CXCL13_HUMAN and with CXCL14_HUMAN was “no binding (tested: 300 nM)” each time. The binding result with CXCL6_HUMAN was “no binding (tested: 300 nM)”. For the same molecule, in the assay with CXCL8_HUMAN [1], the “% cells over threshold fluorescence” value is 53%.

B8: P1090_IXORI (other)
chain: GSKELSGPESSENSIEAAFCDTNCTEGTDGVWSGCSAGCFCVHVGNSTVGRCMTFNGVDGG
Take B8: the binding result in the assay with CXCL9_HUMAN, with CXCL12_HUMAN, in the assay with CXCL14_HUMAN, with CXCL7_HUMAN, with CXCL8_HUMAN [3] and with CXCL4_HUMAN was “no binding (tested: 300 nM)” in each case. Moreover, the Kd with CXCL5_HUMAN stood at 43 nM. For the same molecule, in the assay with CXCL11_HUMAN [4], the “% cells over threshold fluorescence” value was 32%.

B9: CCL23_HUMAN (ligand)
chain: RVTKDAETEFMMSKLPLENPVLLDRFHATSADCCISYTPRSIPCSLLESYFETNSECSKPGVIFLTKKGRRFCANPSDKQVQVCMRMLKLDTRIKTRKN
B9: in the assay with BK1.1FITC, the binding result is on record as “no binding (tested: 1 µM)”.

In general, Kd refers to a measure of binding affinity in units of concentration. A high value points to lower affinity.
